Experimental data from paper PMC3633087.

Molecular target: p11-AnxA2 peptide cassette (UniProt P60903)
Test: crystal structure

“p11-AnxA2 peptide cassette (from UniProt P60903 1-97)” gave a stoichiometry N of 2.
